Laboratory results as given in publication PMC3812903 (Biochemistry, 2013).
Like-named read-outs stand apart in the source and are kept apart here.

Key:
NarJ = details: cited from earlier work
DmsD (Escherichia coli) [1] = molecular target: DmsD (Escherichia coli) (UniProt P69853); details: cited from earlier work
DmsD (Escherichia coli) [2] = molecular target: DmsD (Escherichia coli) (UniProt P69853); details: cited from earlier work; remark: listed apart in the source
[3] = molecular target: DmsD (His6T7::DmsD construct) (E. coli) (UniProt P69853); experiment: ITC
[4] = molecular target: DmsAL15-41 (DmsA twin-arginine leader peptide, residues 15-41) (UniProt P18775); experiment: ITC; details: pH 8.0; 30 °C (303.15 K); 100 mM NaCl; 25 mM Tris-HCl (pH 8.0)
[5] = molecular target: DmsAL15-41 KK (DmsA leader peptide residues 15-41, twin arginines changed to lysines) R16K;R17K (UniProt P18775); experiment: ITC; details: pH 8.0; 30 °C (303.15 K); 100 mM NaCl; 25 mM Tris-HCl (pH 8.0)
[6] = molecular target: DmsAL17-41 (DmsA twin-arginine leader peptide, residues 17-41) (UniProt P18775); experiment: ITC; details: pH 8.0; 30 °C (303.15 K); 100 mM NaCl; 25 mM Tris-HCl (pH 8.0)
[7] = molecular target: DmsAL21-41 (DmsA twin-arginine leader peptide, residues 21-41) (UniProt P18775); experiment: ITC; details: pH 8.0; 30 °C (303.15 K); 100 mM NaCl; 25 mM Tris-HCl (pH 8.0)
NarJ (Escherichia coli) = NarJ (Escherichia coli) (UniProt P0AF26); details: cited from earlier work
UniProt P0AF26, sequence (P0AF26 whole entry): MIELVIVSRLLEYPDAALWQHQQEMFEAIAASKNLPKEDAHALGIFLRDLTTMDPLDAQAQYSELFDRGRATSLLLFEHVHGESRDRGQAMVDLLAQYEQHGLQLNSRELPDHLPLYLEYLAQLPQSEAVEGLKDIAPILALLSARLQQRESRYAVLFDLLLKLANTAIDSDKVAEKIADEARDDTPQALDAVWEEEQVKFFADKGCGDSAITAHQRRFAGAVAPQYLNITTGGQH

TorD (Escherichia coli) = TorD (Escherichia coli) (UniProt P36662); details: cited from earlier work
UniProt P36662, sequence (P36662 whole entry): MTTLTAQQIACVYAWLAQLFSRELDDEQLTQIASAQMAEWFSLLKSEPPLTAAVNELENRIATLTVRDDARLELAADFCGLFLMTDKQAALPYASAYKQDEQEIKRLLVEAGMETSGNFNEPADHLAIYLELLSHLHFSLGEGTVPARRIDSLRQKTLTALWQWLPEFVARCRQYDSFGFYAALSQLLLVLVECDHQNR

## 15 N-terminal residues of NarG: 15 amino-terminal residues of NarG, contain a remnant RR motif (MSKFLDRFRYFKQKG; UniProt P09152 1-15, looked up, fragment)
NarJ
  Kd: ~0.1 µM

## DmsA leader peptide 1-43 (from UniProt P18775)
DmsD (Escherichia coli) [1]
  Kd: 0.06 µM
DmsD (Escherichia coli) [2]
  Kd: 0.2 µM

## DmsAL_(15–41 KK) (from UniProt P18775 15-41) (peptide)
[3]
  Kd: 2.9 µM
  stoichiometry N: 1.09

## DmsAL_(15–41) (from UniProt P18775 15-41) (peptide)
[3]
  Ka: 600000 M⁻¹
  Kd: 1.7 µM
  dH: -11.7 kcal/mol
  stoichiometry N: 1.04

## DmsAL_(17–41) (from UniProt P18775 17-41) (peptide)
[3]
  Kd: 2.1 µM
  dH: -9.5 kcal/mol
  stoichiometry N: 1.04

## DmsAL_(21–41) (from UniProt P18775 21-41) (peptide)
[3]
  Ka: 260000 M⁻¹
  Kd: 3.9 µM
  dH: -4.3 kcal/mol
  stoichiometry N: 1.14

## DmsD (Tat proofreading chaperone / redox enzyme maturation protein)
[4]
  ΔH (apparent, Tris): -11.7 kcal/mol
[5]
  ΔH (apparent, Tris): -10 kcal/mol
[6]
  ΔH (apparent, Tris): -9.5 kcal/mol
[7]
  ΔH (apparent, Tris): -4.3 kcal/mol

## NarG N-terminal peptide 1-15 (from UniProt P09152)
NarJ (Escherichia coli)
  Kd: 0.1 µM

## TorA leader peptide (from UniProt P33225)
TorD (Escherichia coli)
  Kd: 1.8 µM
